Measured values taken from article PMC4333415, “Structural insight into operator dre-sites recognition and effector binding in the GntR/HutC transcription regulator NagR” (Nucleic Acids Research, 2015).

Assays:
[1] = biological target: the molecule itself; assay: crystal structure; full-length NagR co-crystallised with 10 mM GlcN-6-P or GlcNAc-6-P; sitting drop, 292 K; isomorphous crystals, space group R32:H; one homodimer in the asymmetric unit
NagR (YvoA) [2] = biological target: T1, NagR (YvoA) (Bacillus subtilis, UniProt O34817 1-243); assay: SPR; kinetic 1:1 fit; SPR: HBS-EP pH 7.4, 25 C, biotinylated DNA on SA chip; DNA for EMSA/SEC annealed in 20 mM Tris-HCl pH 7.5, 150 mM NaCl; crystal 4WWC: 0.1 M Bis-Tris pH 6.5, 25% PEG 3500, 292 K; details: protein: recombinant; tags: pET15b template; chain copies: 2; label: 5'-biotin on strand 1; blunt
T1 sequence: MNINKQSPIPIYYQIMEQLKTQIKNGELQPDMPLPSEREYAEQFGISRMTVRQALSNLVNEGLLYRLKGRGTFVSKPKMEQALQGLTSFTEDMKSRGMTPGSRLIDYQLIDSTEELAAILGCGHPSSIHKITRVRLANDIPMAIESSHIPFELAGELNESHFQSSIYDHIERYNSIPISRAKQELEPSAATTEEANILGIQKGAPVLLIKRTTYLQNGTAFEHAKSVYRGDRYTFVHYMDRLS

NagR-DBD [3] = biological target: T2, NagR-DBD (Bacillus subtilis, UniProt O34817 1-75); assay: SPR; KD1 of two-step model, steady state; SPR: HBS-EP pH 7.4, 25 C, biotinylated DNA on SA chip; DNA for EMSA/SEC annealed in 20 mM Tris-HCl pH 7.5, 150 mM NaCl; crystal 4WWC: 0.1 M Bis-Tris pH 6.5, 25% PEG 3500, 292 K; details: protein: recombinant; tags: N-terminal His6 with thrombin site (pET15b); chain copies: 2; label: 5'-biotin on strand 1; blunt
T2 sequence: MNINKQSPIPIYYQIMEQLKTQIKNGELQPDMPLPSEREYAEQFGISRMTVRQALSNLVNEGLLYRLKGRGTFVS

NagR-DBD [4] = biological target: T2, NagR-DBD; assay: EMSA; 2 uM DNA; higher oligomers by bridging of fragments; SPR: HBS-EP pH 7.4, 25 C, biotinylated DNA on SA chip; DNA for EMSA/SEC annealed in 20 mM Tris-HCl pH 7.5, 150 mM NaCl; crystal 4WWC: 0.1 M Bis-Tris pH 6.5, 25% PEG 3500, 292 K; details: protein: recombinant; tags: N-terminal His6 with thrombin site (pET15b); chain copies: 2; 3' overhang 1 nt (T) on each strand; self-complementary, 2 copies
NagR (YvoA) [5] = biological target: T1, NagR (YvoA); assay: SEC; 3 uM DNA; SPR: HBS-EP pH 7.4, 25 C, biotinylated DNA on SA chip; DNA for EMSA/SEC annealed in 20 mM Tris-HCl pH 7.5, 150 mM NaCl; crystal 4WWC: 0.1 M Bis-Tris pH 6.5, 25% PEG 3500, 292 K; details: protein: recombinant; tags: pET15b template; chain copies: 2; 3' overhang 1 nt (T) on each strand; self-complementary, 2 copies
NagR-DBD [6] = biological target: T2, NagR-DBD; assay: as above; details: protein: recombinant; tags: N-terminal His6 with thrombin site (pET15b); chain copies: 2; 3' overhang 1 nt (T) on each strand; self-complementary, 2 copies
NagR-DBD [7] = biological target: T2, NagR-DBD; assay: SPR; 1:1 steady state; SPR: HBS-EP pH 7.4, 25 C, biotinylated DNA on SA chip; DNA for EMSA/SEC annealed in 20 mM Tris-HCl pH 7.5, 150 mM NaCl; crystal 4WWC: 0.1 M Bis-Tris pH 6.5, 25% PEG 3500, 292 K; details: protein: recombinant; tags: N-terminal His6 with thrombin site (pET15b); chain copies: 2; label: 5'-biotin on strand 1; blunt
NagR (YvoA) [8] = biological target: T1, NagR (YvoA); assay: as above; details: protein: recombinant, tags: pET15b template, chain copies: 2, label: 5'-biotin on strand 1, blunt
NagR-DBD [9] = biological target: T2, NagR-DBD; assay: SPR; SPR: HBS-EP pH 7.4, 25 C, biotinylated DNA on SA chip; DNA for EMSA/SEC annealed in 20 mM Tris-HCl pH 7.5, 150 mM NaCl; crystal 4WWC: 0.1 M Bis-Tris pH 6.5, 25% PEG 3500, 292 K; details: protein: recombinant; tags: N-terminal His6 with thrombin site (pET15b); chain copies: 2; label: 5'-biotin on strand 1; blunt; one T:C mismatch as printed at position 3 of strand 1 (possible misprint)
NagR (YvoA) [10] = biological target: T1, NagR (YvoA); assay: X-ray crystallography; effector-free; 2.9 A; SPR: HBS-EP pH 7.4, 25 C, biotinylated DNA on SA chip; DNA for EMSA/SEC annealed in 20 mM Tris-HCl pH 7.5, 150 mM NaCl; crystal 4WWC: 0.1 M Bis-Tris pH 6.5, 25% PEG 3500, 292 K; details: protein: recombinant; tags: pET15b template; chain copies: 2; 3' overhang 1 nt (G) on each strand; self-complementary, 2 copies

B1: NagR (full-length, wild-type) from Bacillus subtilis (natural protein, UniProt O34817 1-243, looked up)
chain: T1 sequence
notes: NagR (formerly YvoA), GntR/HutC family transcription repressor of Bacillus subtilis, full length; The nagR gene stood in a pET15b vector; also called YvoA; full-length NagR
- stoichiometry N [1]: 2

B2: 26mer palindromic dsDNA (dsDNA)
DNA 1: GCTCAGGTGGTCTAGACCACTAGTCT
DNA 2: AGACTAGTGGTCTAGACCACCTGAGC
- Kd (NagR (YvoA) [2]): 0.0279 ± 0.0067 nM
- Kd (NagR-DBD [3]): 14.5 ± 3.3 nM

B3: 15mer palindromic dsDNA (shifted motif) (dsDNA)
DNA 1: GACCACATGTGGTCT
DNA 2: GACCACATGTGGTCT
- binding result (NagR-DBD [4]): binds

B4: 15mer palindromic dsDNA (dsDNA)
DNA 1: GTGGTCTAGACCACT
DNA 2: GTGGTCTAGACCACT
- binding result (NagR (YvoA) [5]): binds
- binding result (NagR-DBD [6]): binds

B5: 26mer native nagAB dsDNA (dsDNA)
DNA 1: GCTCAGCTGGTCTAGATCACTAGTCT
DNA 2: AGACTAGTGATCTAGACCAGCTGAGC
- Kd (NagR (YvoA) [2]): 0.0192 ± 0.0151 nM
- Kd (NagR-DBD [7]): 122 ± 7.6 nM

B6: 26mer control dsDNA (derived from nagA gene) (dsDNA)
DNA 1: GCAGAGAGTCTTCTTATTAAAGACAT
DNA 2: ATGTCTTTAATAAGAAGACTCTCTGC
- Kd (NagR (YvoA) [8]): 127 ± 4.2 nM

B7: 26mer control dsDNA (random design) (dsDNA)
DNA 1: AATCATTTATGGCATAGGCAACAAGT
DNA 2: ACTTGTTGCCTATGCCATAAATGCTT
- binding result (NagR-DBD [9]): no binding
- Kd (NagR (YvoA) [8]; one T:C mismatch as printed at position 3 of strand 1 (possible misprint)): 306 ± 6.3 nM

B8: 19mer palindromic dsDNA (dsDNA)
DNA 1: CAGTGGTCTAGACCACTGG
DNA 2: CAGTGGTCTAGACCACTGG
- binding result (NagR (YvoA) [10]): binds
